Test results as given in publication PMC3656001.

Columns and labels:
[1] = biological target: bovine lactoferrin (bovine); assay: AUC; follow-up multi-signal sedimentation velocity (MSSV) without constraints, conducted almost identically to a1 but with absorbance at 280 nm and 250 nm and no interference signal; Tp34/bLF mixture in solution
[2] = biological target: bovine lactoferrin (bovine); assay: AUC; multi-signal sedimentation velocity (MSSV) with mass conservation and low-s constraints; mixture of 6.9 µM Tp34 and 2.3 µM bLF in solution, diluted from Buffer A into 20 mM Tris pH 7.5, 20 mM NaCl; 20°C, 50,000 rpm; interference + absorbance at 280 nm; Kd estimated from the reaction boundary molar ratio by effective particle theory, assuming sAB = 6.2 S

B1: Tp34 from Treponema pallidum (natural protein)
chain: CGGGGEHQHGEEMMAAVPAPDAEGAAGFDEFPIGEDRDVGPLHVGGVYFQPVEMHPAPGAQPSKEEADCHIEADIHANEAGKDLGYGVGDFVPYLRVVAFLQKHGSEKVQKVMFAPMNAGDGPHYGANVKFEEGLGTYKVRFEIAAPSHDEYSLHIDEQTGVSGRFWSEPLVAEWDDFEWKGPQW
Work on B1 yielded a stoichiometry N (mol Tp34 per mol bLF) [1] of 0.7, a Kd [2] of 3.1 µM and a stoichiometry N (mol Tp34 per mol bLF) [2] of 0.7.
